Test results taken from US20190284268A1 (ABCENTRA, published 2019).

Assays:
Fas (human) = Fas (human) (UniProt P25445); assay: cell-based or functional assay
oxidized LDL (oxLDL) = oxidized LDL (oxLDL) (UniProt P04114 28-4563, oxidized LDL particle; kind of oxidation not stated for this assay); assay: cell-based or functional assay
Chain of oxidized LDL (oxLDL) (P04114 28-4563 limits assumed): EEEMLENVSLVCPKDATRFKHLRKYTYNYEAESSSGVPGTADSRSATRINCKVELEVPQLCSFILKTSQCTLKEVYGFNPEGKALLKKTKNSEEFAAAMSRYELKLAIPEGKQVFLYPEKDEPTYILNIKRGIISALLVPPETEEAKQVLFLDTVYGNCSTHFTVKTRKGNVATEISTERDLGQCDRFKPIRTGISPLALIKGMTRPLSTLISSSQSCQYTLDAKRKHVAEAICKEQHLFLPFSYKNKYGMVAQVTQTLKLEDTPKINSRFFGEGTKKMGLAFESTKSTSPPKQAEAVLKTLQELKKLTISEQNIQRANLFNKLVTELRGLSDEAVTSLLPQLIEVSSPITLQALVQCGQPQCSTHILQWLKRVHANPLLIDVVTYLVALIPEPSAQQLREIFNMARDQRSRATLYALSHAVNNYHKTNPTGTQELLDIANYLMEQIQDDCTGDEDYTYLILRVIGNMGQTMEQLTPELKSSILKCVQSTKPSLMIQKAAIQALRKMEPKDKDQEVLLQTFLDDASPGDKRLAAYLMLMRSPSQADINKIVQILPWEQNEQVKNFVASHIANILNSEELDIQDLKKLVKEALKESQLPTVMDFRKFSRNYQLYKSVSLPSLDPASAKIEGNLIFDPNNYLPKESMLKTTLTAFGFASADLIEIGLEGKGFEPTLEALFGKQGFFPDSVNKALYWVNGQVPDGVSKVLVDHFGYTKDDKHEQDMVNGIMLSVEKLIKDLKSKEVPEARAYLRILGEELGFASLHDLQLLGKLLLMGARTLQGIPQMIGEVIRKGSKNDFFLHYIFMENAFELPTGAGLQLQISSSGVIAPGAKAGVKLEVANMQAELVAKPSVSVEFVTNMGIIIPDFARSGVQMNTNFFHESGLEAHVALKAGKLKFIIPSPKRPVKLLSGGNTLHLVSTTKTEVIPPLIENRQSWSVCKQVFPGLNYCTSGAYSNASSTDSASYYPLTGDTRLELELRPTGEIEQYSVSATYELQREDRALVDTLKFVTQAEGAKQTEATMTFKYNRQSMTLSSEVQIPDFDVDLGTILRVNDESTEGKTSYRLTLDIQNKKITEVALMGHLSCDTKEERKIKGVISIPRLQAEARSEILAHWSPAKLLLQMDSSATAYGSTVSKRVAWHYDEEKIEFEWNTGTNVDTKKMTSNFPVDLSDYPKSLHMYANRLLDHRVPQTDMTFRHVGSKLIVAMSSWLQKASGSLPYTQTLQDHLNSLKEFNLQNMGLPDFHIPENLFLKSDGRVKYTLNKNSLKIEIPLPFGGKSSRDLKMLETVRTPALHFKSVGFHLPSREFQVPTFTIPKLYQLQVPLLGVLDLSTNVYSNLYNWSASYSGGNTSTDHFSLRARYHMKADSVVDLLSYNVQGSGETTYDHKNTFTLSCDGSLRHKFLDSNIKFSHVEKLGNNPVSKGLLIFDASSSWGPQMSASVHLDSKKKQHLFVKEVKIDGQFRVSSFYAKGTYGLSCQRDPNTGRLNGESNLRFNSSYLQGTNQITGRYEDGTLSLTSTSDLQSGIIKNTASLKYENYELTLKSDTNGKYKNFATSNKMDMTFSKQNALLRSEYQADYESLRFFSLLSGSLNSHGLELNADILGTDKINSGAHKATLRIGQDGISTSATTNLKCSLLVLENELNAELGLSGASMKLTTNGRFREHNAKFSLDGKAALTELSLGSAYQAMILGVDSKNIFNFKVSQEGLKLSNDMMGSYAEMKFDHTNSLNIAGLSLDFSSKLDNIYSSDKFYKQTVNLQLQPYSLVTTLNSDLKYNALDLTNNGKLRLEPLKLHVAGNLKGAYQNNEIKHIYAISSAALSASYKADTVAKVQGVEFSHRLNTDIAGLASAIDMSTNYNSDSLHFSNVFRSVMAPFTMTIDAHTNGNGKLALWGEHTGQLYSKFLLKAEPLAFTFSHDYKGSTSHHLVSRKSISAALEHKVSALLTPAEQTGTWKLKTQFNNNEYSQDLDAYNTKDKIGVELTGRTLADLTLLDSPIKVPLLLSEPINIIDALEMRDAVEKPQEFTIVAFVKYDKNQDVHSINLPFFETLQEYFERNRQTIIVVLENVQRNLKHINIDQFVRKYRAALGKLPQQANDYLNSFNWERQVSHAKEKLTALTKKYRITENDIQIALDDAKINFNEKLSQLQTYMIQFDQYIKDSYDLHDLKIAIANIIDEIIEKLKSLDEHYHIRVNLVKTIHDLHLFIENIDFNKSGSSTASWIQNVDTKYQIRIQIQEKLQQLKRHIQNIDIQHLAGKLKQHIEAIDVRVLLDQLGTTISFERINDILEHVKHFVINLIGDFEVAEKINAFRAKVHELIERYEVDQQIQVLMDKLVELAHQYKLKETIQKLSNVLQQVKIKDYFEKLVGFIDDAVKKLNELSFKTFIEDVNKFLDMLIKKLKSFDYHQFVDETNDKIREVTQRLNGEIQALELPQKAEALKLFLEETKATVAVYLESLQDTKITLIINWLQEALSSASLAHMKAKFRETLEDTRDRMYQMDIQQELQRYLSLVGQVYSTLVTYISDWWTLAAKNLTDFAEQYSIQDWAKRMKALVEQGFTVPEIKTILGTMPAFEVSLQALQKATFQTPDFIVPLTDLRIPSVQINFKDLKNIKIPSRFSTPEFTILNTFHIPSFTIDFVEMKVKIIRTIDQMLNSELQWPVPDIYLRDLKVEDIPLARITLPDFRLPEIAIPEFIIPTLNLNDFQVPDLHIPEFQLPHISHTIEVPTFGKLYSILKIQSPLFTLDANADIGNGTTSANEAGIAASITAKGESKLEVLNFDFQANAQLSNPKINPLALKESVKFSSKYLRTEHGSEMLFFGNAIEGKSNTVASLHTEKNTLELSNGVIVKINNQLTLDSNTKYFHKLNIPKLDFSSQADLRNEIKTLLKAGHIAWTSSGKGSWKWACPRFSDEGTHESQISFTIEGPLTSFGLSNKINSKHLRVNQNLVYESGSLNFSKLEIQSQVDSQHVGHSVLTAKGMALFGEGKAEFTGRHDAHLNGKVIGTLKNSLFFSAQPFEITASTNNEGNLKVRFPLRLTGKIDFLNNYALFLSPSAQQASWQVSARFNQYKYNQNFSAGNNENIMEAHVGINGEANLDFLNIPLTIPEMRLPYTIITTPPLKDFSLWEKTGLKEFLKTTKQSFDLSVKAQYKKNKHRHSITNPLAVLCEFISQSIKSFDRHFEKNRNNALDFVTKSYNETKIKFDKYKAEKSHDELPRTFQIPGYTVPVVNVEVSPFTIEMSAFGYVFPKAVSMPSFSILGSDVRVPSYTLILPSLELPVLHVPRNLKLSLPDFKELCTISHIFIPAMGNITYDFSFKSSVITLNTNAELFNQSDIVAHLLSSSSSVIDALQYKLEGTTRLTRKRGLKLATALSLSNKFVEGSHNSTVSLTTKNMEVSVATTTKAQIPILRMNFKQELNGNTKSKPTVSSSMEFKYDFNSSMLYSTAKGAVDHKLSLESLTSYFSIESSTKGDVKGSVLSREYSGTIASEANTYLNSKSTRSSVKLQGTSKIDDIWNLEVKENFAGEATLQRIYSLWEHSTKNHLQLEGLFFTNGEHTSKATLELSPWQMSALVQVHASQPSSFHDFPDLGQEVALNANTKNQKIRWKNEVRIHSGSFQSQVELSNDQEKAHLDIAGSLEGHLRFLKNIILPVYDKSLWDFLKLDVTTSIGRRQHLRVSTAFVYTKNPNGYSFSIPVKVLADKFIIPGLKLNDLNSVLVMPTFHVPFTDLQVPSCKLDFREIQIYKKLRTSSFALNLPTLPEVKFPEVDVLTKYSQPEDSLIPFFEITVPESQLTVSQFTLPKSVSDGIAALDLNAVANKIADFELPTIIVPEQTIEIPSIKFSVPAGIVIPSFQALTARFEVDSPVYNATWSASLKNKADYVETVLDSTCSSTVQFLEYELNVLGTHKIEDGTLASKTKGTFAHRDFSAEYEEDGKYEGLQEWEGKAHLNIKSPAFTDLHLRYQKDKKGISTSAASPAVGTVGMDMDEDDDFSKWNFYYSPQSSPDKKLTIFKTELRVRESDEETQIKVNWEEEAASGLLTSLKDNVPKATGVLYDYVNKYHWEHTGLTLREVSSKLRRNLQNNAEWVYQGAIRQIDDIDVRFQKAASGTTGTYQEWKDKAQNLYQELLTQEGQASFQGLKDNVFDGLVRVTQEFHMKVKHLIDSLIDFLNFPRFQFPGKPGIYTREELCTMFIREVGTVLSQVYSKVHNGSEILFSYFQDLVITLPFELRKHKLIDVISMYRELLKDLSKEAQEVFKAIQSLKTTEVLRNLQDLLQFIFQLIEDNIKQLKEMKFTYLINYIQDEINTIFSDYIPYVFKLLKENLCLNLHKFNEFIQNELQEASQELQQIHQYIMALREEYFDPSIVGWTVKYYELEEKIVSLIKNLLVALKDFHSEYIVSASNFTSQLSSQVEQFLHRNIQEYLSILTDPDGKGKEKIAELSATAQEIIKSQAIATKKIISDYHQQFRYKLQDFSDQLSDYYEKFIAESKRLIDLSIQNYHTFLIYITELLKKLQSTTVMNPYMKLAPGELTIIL

Chain of Fas (human) (P25445 26-335): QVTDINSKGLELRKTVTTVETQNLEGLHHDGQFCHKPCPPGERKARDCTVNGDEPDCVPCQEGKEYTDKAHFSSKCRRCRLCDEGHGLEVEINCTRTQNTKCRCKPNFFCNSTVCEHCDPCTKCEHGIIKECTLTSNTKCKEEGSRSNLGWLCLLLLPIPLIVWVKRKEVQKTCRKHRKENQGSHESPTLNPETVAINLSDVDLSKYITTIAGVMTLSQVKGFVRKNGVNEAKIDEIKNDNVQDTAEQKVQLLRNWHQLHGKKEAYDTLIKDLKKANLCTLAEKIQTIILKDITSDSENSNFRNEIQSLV

release of FAS from PBMCs of SLE patients (Fas (human)) [%] | IC50 for MCP-1 inhibition (oxidized LDL (oxLDL)) [nM] | Molecule
73 | – | soluble Fas ligand (from UniProt P48023 134-281)
– | ~10 | orticumab (antibody, human IgG1, lambda, V domains shown) VH: EVQLLESGGGLVQPGGSLRLSCAASGFTFSNAWMSWVRQAPGKGLEWVSSISVGGHRTYYADSVKGRSTISRDNSKNTLYLQMNSLRAEDTAVYYCARIRVGPSGGAFDYWGQGTLVTVSS VL: QSVLTQPPSASGTPGQRVTISCSGSNTNIGKNYVSWYQQLPGTAPKLLIYANSNRPSGVPDRFSGSKSGTSASLAISGLRSEDEADYYCASWDASLNGWVFGGGTKLTVLG
